According to patent US20200317768A1 (published 2020):

T1: cynomolgus monkey FcγRIIa1 extracellular domain with C-terminal His-tag (cynomolgus monkey)
T1 construct: Expressed in FreeStyle 293 cells and purified; also called cyno FcγRIIa1; cynoFcgRIIa1; not shown: C-terminal His-tag
T1 chain: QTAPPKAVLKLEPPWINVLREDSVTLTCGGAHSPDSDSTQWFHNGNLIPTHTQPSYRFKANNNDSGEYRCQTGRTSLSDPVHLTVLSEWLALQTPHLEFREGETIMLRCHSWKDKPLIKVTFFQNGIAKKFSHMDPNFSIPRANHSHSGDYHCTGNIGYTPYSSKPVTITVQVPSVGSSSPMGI

T2: cynomolgus monkey FcγRIIa2 extracellular domain with C-terminal His-tag (cynomolgus monkey)
T2 construct: Expressed in FreeStyle 293 cells and purified; also called cyno FcγRIIa2; cynoFcgRIIa2; not shown: C-terminal His-tag
T2 chain: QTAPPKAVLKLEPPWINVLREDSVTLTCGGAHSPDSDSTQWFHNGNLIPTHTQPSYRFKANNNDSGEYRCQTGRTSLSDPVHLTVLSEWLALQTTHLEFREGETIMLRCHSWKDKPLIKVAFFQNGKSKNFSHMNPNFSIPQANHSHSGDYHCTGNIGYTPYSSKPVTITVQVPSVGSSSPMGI

T3: cynomolgus monkey FcγRIIa3 extracellular domain with C-terminal His-tag (cynomolgus monkey)
T3 construct: Expressed in FreeStyle 293 cells and purified; also called cyno FcγRIIa3; cynoFcgRIIa3; not shown: C-terminal His-tag
T3 chain: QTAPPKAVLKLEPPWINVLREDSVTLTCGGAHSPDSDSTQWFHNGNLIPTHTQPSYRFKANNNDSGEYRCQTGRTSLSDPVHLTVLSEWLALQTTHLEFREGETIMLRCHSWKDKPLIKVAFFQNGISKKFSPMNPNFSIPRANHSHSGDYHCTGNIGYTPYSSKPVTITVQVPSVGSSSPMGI

T4: cynomolgus monkey FcγRIIb extracellular domain with C-terminal His-tag (cynomolgus monkey)
T4 construct: Expressed in FreeStyle 293 cells and purified; also called cyno FcγRIIb; cynoFcγRIIb; not shown: C-terminal His-tag
T4 chain: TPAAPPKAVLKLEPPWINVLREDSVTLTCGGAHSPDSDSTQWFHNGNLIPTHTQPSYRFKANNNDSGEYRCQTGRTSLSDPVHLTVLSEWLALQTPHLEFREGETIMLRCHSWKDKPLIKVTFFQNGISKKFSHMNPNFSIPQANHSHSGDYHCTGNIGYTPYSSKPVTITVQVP

T5: cynomolgus monkey FcγRIIIaS extracellular domain with C-terminal His-tag (cynomolgus monkey, UniProt Q8SPW2 21-206 at identity 1.00))
T5 construct: Expressed in FreeStyle 293 cells and purified; also called cyno FcγRIIIaS; cynoFcγRIIIaS; not shown: C-terminal His-tag
T5 chain: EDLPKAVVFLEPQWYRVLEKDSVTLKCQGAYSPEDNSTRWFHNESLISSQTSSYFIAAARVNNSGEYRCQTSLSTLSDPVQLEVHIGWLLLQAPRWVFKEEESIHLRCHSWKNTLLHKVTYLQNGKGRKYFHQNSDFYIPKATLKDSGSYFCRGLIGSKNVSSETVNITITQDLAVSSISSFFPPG

T6: human FcγRIIaH extracellular domain with C-terminal His-tag (human, UniProt P12318 34-217)
T6 construct: Expressed in FreeStyle 293 cells and purified; also called human FcγRIIa (type H); FcgRIIaH; not shown: C-terminal His-tag
T6 sequence: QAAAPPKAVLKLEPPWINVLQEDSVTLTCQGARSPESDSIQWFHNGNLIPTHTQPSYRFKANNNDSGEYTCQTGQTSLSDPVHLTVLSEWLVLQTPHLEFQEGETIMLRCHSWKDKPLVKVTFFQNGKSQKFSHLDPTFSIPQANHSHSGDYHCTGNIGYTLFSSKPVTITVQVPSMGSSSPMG

T7: human FcγRIIaR extracellular domain with C-terminal His-tag (human, UniProt P12318 34-217)
T7 construct: Expressed in FreeStyle 293 cells and purified; also called human FcγRIIa (type R); FcgRIIaR; not shown: C-terminal His-tag
T7 chain: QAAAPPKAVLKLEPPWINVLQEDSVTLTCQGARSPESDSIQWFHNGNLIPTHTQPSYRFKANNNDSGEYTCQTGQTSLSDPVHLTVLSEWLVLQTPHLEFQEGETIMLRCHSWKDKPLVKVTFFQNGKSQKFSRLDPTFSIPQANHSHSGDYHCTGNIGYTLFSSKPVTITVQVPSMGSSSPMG

T8: human FcγRIIb extracellular domain with C-terminal His-tag (human, UniProt P31994 43-217)
T8 construct: Expressed in FreeStyle 293 cells and purified; also called humanFcgRIIb; not shown: C-terminal His-tag
T8 sequence: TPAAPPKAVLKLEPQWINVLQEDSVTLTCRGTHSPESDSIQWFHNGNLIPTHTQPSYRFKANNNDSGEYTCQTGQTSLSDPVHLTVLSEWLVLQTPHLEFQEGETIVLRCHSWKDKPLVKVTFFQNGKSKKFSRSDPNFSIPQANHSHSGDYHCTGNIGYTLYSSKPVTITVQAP


What was measured:
Assay in all cases: SPR (Biacore); KD of SG1 divided by KD of the variant for this FcgR;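 note: relative to parent M103205H795-SG1 carrying the SG1 human heavy chain constant region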
[1] = target: T1, cynomolgus monkey FcγRIIa1 …
Procedure: (§1) Regarding such interactions, KD values were calculated using the following 1:1 binding model described in BIACORE® T100 Software Handbook BR1006-48 Edition AE.
(§2) The behavior of interacting molecules according to the 1:1 binding model on BIACORE® can be described by Equation 1: Req=C·R max/(KD+C)+RI, wherein, Req is a plot of steady-state binding levels to analyte concentration. C is concentration, RI is bulk refractive index contribution in the sample, and Rmax is analyte binding capacity of the surface. When this equation is rearranged, KD can be expressed as Equation 2: KD=C·Rmax/(Req−RI)−C. KD can be calculated by substituting the values of Rmax, RI, and C into Equation 1 or Equation 2. From the current measurement conditions, RI=0, C=2 μmol/L can be used.
(§3) The variants were expressed using M103202L889-SK1 as the light chain and their affinity was analyzed.

[2] = target: T2, cynomolgus monkey FcγRIIa2 …
Procedure: as §1, §2, §3

[3] = target: T3, cynomolgus monkey FcγRIIa3 …
Procedure: as §1, §2, §3

[4] = target: T4, cynomolgus monkey FcγRIIb extracellular …
Procedure: as §1, §2, §3

[5] = target: T5, cynomolgus monkey FcγRIIIaS …
Procedure: as §1, §2, §3

[6] = target: T6, human FcγRIIaH extracellular domain …
Procedure: as §1, §2, §3

[7] = target: T7, human FcγRIIaR extracellular domain …
Procedure: as §1, §2, §3

[8] = target: T8, human FcγRIIb extracellular domain with …
Procedure: as §1, §2, §3

[9] = target: T9, human FcγRIIIaV extracellular domain with C-terminal His-tag (human, UniProt P08637 17-208)
T9 construct: Expressed in FreeStyle 293 cells and purified; also called FcgRIIIaV; not shown: C-terminal His-tag
T9 sequence (P08637 17-208 F176V): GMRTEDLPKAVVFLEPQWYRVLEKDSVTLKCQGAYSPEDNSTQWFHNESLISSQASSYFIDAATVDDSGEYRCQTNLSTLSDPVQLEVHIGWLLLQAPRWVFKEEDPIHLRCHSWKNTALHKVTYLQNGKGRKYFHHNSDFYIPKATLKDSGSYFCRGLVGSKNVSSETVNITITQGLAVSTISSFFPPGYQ
Procedure: as §1, §2, §3

KD fold (SG1 = 1) [1] [fold] | KD fold (SG1 = 1) [2] [fold] | KD fold (SG1 = 1) [3] [fold] | KD fold (SG1 = 1) [4] [fold] | KD fold (SG1 = 1) [5] [fold] | KD fold (SG1 = 1) [6] [fold] | KD fold (SG1 = 1) [7] [fold] | KD fold (SG1 = 1) [8] [fold] | KD fold (SG1 = 1) [9] [fold] | Binder
2.7 | 5.4 | 2.5 | 2.8 | 0.18 | 0.8 | 0.5 | 4.2 | 0.08 | M103205H795-MY208 / M103202L889-SK1 (antibody, human IgG1, kappa, Fc variant of M103205H795-SG1, expressed with M103202L889-SK1 as light chain) heavy: QVTLKESGPVLVKPTETLTLTCTVSGIDLSHDDISWVRQAPGKGLEWVGIISYAGSTYYASWAKGRLTISKDTSKNQVVLTMTNMDPVDTATYYCARGVPAYSHGGDLWGQGTLVTVSSASTKGPSVFPLAPSSKSTSGGTAALGCLVKDYFPEPVTVSWNSGALTSGVHTFPAVLQSSGLYSLSSVVTVPSSSLGTQTYICNVNHKPSNTKVDKKVEPKSCDKTHTCPPCPAPELLNGPSVFLFPPKPKDTLMISRTPEVTCVVVDVSDEDPEVKFNWYVDGVEVHNAKTKPREELYNSTYRVVSVLTVLHQDWLNGKEYKCKVSNKALPAPIEKTISKAKGQPREPQVYTLPPSREEMTKNQVSLTCLVKGFYPSDIAVEWESNGQPENNYKTTPPVLDSDGSFFLYSKLTVDKSRWQQGNVFSCSVMHEALHNHYTQKSLSLSP light: DIVMTQSPATLSLSPGERATLSCTSSQSVYHANWLSWFQQKPGQPPKLLIYWASTLAYGVPSRFSGSGSGTDFTLTISSLQPEDAATYYCAGGYGGGRYAFGQGTKVEIKRTVAAPSVFIFPPSDEQLKSGTASVVCLLNNFYPREAKVQWKVDNALQSGNSQESVTEQDSKDSTYSLSSTLTLSKADYEKHKVYACEVTHQGLSSPVTKSFNRGEC
3.4 | 8.1 | 7.4 | 6.4 | 0.15 | 0.6 | 0.8 | 4.7 | 0.05 | M103205H795-MY210 / M103202L889-SK1 (antibody, human IgG1, kappa, Fc variant of M103205H795-SG1, expressed with M103202L889-SK1 as light chain) heavy: QVTLKESGPVLVKPTETLTLTCTVSGIDLSHDDISWVRQAPGKGLEWVGIISYAGSTYYASWAKGRLTISKDTSKNQVVLTMTNMDPVDTATYYCARGVPAYSHGGDLWGQGTLVTVSSASTKGPSVFPLAPSSKSTSGGTAALGCLVKDYFPEPVTVSWNSGALTSGVHTFPAVLQSSGLYSLSSVVTVPSSSLGTQTYICNVNHKPSNTKVDKKVEPKSCDKTHTCPPCPAPELLNGPSVFLFPPKPKDTLMISRTPEVTCVVVDVSDEDPEVKFNWYVDGVEVHNAKTKPREEQYNSTYRVVSVLTVLHQDWLNGKEYKCKVSNTALPKPIEKTISKAKGQPREPQVYTLPPSREEMTKNQVSLTCLVKGFYPSDIAVEWESNGQPENNYKTTPPVLDSDGSFFLYSKLTVDKSRWQQGNVFSCSVMHEALHNHYTQKSLSLSP light: DIVMTQSPATLSLSPGERATLSCTSSQSVYHANWLSWFQQKPGQPPKLLIYWASTLAYGVPSRFSGSGSGTDFTLTISSLQPEDAATYYCAGGYGGGRYAFGQGTKVEIKRTVAAPSVFIFPPSDEQLKSGTASVVCLLNNFYPREAKVQWKVDNALQSGNSQESVTEQDSKDSTYSLSSTLTLSKADYEKHKVYACEVTHQGLSSPVTKSFNRGEC
4.3 | 3.8 | 6.3 | 3.8 | 0.12 | 0.6 | 0.8 | 5.6 | 0.17 | M103205H795-MY211 / M103202L889-SK1 (antibody, human IgG1, kappa, Fc variant of M103205H795-SG1, expressed with M103202L889-SK1 as light chain) heavy: QVTLKESGPVLVKPTETLTLTCTVSGIDLSHDDISWVRQAPGKGLEWVGIISYAGSTYYASWAKGRLTISKDTSKNQVVLTMTNMDPVDTATYYCARGVPAYSHGGDLWGQGTLVTVSSASTKGPSVFPLAPSSKSTSGGTAALGCLVKDYFPEPVTVSWNSGALTSGVHTFPAVLQSSGLYSLSSVVTVPSSSLGTQTYICNVNHKPSNTKVDKKVEPKSCDKTHTCPPCPAPELLNGPVVFLFPPKPKDTLMISRTPEVTCVVVDVSDEDPEVKFNWYVDGVEVHNAKTKPREEQYNSTYRVVSVLTVLHQDWLNGKEYKCKVSNTALPKPIEKTISKAKGQPREPQVYTLPPSREEMTKNQVSLTCLVKGFYPSDIAVEWESNGQPENNYKTTPPVLDSDGSFFLYSKLTVDKSRWQQGNVFSCSVMHEALHNHYTQKSLSLSP light: DIVMTQSPATLSLSPGERATLSCTSSQSVYHANWLSWFQQKPGQPPKLLIYWASTLAYGVPSRFSGSGSGTDFTLTISSLQPEDAATYYCAGGYGGGRYAFGQGTKVEIKRTVAAPSVFIFPPSDEQLKSGTASVVCLLNNFYPREAKVQWKVDNALQSGNSQESVTEQDSKDSTYSLSSTLTLSKADYEKHKVYACEVTHQGLSSPVTKSFNRGEC
